Laboratory results: patent US20250277023A1 (published 2025)

Biological target: PD-L1 (on CHO-PD-L1 cells) (UniProt Q9NZQ7 19-290)
Assay: FACS binding; Fig. 24

Sequence of PD-L1 (on CHO-PD-L1 cells) (Q9NZQ7 19-290): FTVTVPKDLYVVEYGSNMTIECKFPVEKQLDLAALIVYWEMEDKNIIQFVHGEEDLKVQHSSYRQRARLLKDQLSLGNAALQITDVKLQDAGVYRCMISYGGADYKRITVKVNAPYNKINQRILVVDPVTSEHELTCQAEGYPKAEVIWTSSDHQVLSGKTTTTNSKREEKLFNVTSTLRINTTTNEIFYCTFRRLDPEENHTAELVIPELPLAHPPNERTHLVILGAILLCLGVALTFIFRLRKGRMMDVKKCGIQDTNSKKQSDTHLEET

B1: R1084: PD-L1_VH (G44C)_IL15RA/PD-L1_VL(Q101C)_IL15/TIGIT-Fab (bispecific antibody)
chain 1: QVQLQESGPGLVKPSETLSLTCAVYGDSITSGYWNWIRKPPGKCLEYIGYISYTGSTYQNPSLKSRITMSRDTSKNQYYLKLSSVTAADTAVYYCARSRAWIRTYFDYWGQGTLVTVSSGGGGSGGGGSGGGGSGGGGSGITCPPPMSVEHADIWVKSYSLYSRERYICNSGFKRKAGTSSLTECVLNKATNVAHWTTPSLKCIRDPALVHQRPAPPSTVTTAGVTPQPESLSPSGKEPAASSPSSNNTAATTAAIVPGSQLMPSKSPSTGTTEISSHESSHGTPSQTTAKNWELTASASHQPPGVYPQGHSDTTEPKSSDKTHTCPPCPAPELLGGPSVFLFPPKPKDTLMISRTPEVTCVVVDVSHEDPEVKFNWYVDGVEVHNAKTKPREEQYNSTYRVVSVLTVLHQDWLNGKEYKCKVSNKALPAPIEKTISKAKGQPREPQVYTLPPSREEMTKNQVSLTCRVKGFYPSDIAVEWESNGQPENNYKTTPPVLKSDGSFFLASKLTVDKSRWQQGNVFSCSVMHEALHNHYTQKSLSLSPGK
chain 2: DIQMTQSPSSLSASVGDRVTITCSVSSSISSSNLHWYQQKPGKAPKPWIYGTSNLASGVPSRFSGSGSGTDYTLTISSLQPEDFATYYCQQWSSYPLTFGCGTKLEIKGGGGSGGGGSGGGGSGGGGSGNWVNVISDLKKIEDLIQSMHIDATLYTESDVHPSCKVTAMKCFLLELQVISLESGDASIHNTVQDLIILANNSLSSNGNVTESGCKECEELEEKNIKEFLQSFVHIVQMFINTS
heavy: QVQLVQSGAEVKKPGSSVKVSCKASGYSFTSYWMNWVRQAPGQGLEWIGMIRPSDSETRLNQMFKDRVTITVDKSTSTAYMELSSLRSEDTAVYYCAGIHDYGHGAYWGQGTLVTVSSASTKGPSVFPLAPSSKSTSGGTAALGCLVKDYFPEPVTVSWNSGALTSGVHTFPAVLQSSGLYSLSSVVTVPSSSLGTQTYICNVNHKPSNTKVDKRVEPKSCDKTHTCPPCPAPELLGGPSVFLFPPKPKDTLMISRTPEVTCVVVDVSHEDPEVKFNWYVDGVEVHNAKTKPREEQYNSTYRVVSVLTVLHQDWLNGKEYKCKVSNKALPAPIEKTISKAKGQPREPQVYTLPPSREEMTKNQVSLWCLVKGFYPSDIAVEWESNGQPENNYDTTPPVLDSDGSFFLYSDLTVDKSRWQQGNVFSCSVMHEALHNHYTQKSLSLSPGK
light: DIQMTQSPSSLSASVGDRVTITCRASENIYSNLAWYQQKPGKSPKLLVYAASHLPDGVPSRFSGSGSGTDYSLTISSLQPEDFATYYCQHFWGTPRTFGQGTKLEIKRTVAAPSVFIFPPSDEQLKSGTASVVCLLNNFYPREAKVQWKVDNALQSGNSQESVTEQDSKDSTYSLSSTLTLSKADYEKHKVYACEVTHQGLSSPVTKSFNRGEC
- EC50: 5.85 nM

B2: R1086: TIGIT_VH_IL15RA (R35C)/TIGIT_VL_IL15 (E93C)/PD-L1-Fab (bispecific antibody)
chain 1: QVQLVQSGAEVKKPGSSVKVSCKASGYSFTSYWMNWVRQAPGQGLEWIGMIRPSDSETRLNQMFKDRVTITVDKSTSTAYMELSSLRSEDTAVYYCAGIHDYGHGAYWGQGTLVTVSSGGGGSGGGGSGGGGSGGGGSGITCPPPMSVEHADIWVKSYSLYSRERYICNSGFKCKAGTSSLTECVLNKATNVAHWTTPSLKCIRDPALVHQRPAPPSTVTTAGVTPQPESLSPSGKEPAASSPSSNNTAATTAAIVPGSQLMPSKSPSTGTTEISSHESSHGTPSQTTAKNWELTASASHQPPGVYPQGHSDTTEPKSSDKTHTCPPCPAPELLGGPSVFLFPPKPKDTLMISRTPEVTCVVVDVSHEDPEVKFNWYVDGVEVHNAKTKPREEQYNSTYRVVSVLTVLHQDWLNGKEYKCKVSNKALPAPIEKTISKAKGQPREPQVYTLPPSREEMTKNQVSLTCRVKGFYPSDIAVEWESNGQPENNYKTTPPVLKSDGSFFLASKLTVDKSRWQQGNVFSCSVMHEALHNHYTQKSLSLSPGK
chain 2: DIQMTQSPSSLSASVGDRVTITCRASENIYSNLAWYQQKPGKSPKLLVYAASHLPDGVPSRFSGSGSGTDYSLTISSLQPEDFATYYCQHFWGTPRTFGQGTKLEIKGGGGSGGGGSGGGGSGGGGSGNWVNVISDLKKIEDLIQSMHIDATLYTESDVHPSCKVTAMKCFLLELQVISLESGDASIHNTVQDLIILANNSLSSNGNVTESGCKECEELECKNIKEFLQSFVHIVQMFINTS
heavy: QVQLQESGPGLVKPSETLSLTCAVYGDSITSGYWNWIRKPPGKGLEYIGYISYTGSTYQNPSLKSRITMSRDTSKNQYYLKLSSVTAADTAVYYCARSRAWIRTYFDYWGQGTLVTVSSASTKGPSVFPLAPSSKSTSGGTAALGCLVKDYFPEPVTVSWNSGALTSGVHTFPAVLQSSGLYSLSSVVTVPSSSLGTQTYICNVNHKPSNTKVDKRVEPKSCDKTHTCPPCPAPELLGGPSVFLFPPKPKDTLMISRTPEVTCVVVDVSHEDPEVKFNWYVDGVEVHNAKTKPREEQYNSTYRVVSVLTVLHQDWLNGKEYKCKVSNKALPAPIEKTISKAKGQPREPQVYTLPPSREEMTKNQVSLWCLVKGFYPSDIAVEWESNGQPENNYDTTPPVLDSDGSFFLYSDLTVDKSRWQQGNVFSCSVMHEALHNHYTQKSLSLSPGK
light: DIQMTQSPSSLSASVGDRVTITCSVSSSISSSNLHWYQQKPGKAPKPWIYGTSNLASGVPSRFSGSGSGTDYTLTISSLQPEDFATYYCQQWSSYPLTFGQGTKLEIKRTVAAPSVFIFPPSDEQLKSGTASVVCLLNNFYPREAKVQWKVDNALQSGNSQESVTEQDSKDSTYSLSSTLTLSKADYEKHKVYACEVTHQGLSSPVTKSFNRGEC
- EC50: 2.02 nM

B3: R1081: TIGIT_VH (G44C)_IL15RA/TIGIT_VL(Q100C)_IL15/PD-L1-Fab (bispecific antibody)
chain 1: QVQLVQSGAEVKKPGSSVKVSCKASGYSFTSYWMNWVRQAPGQCLEWIGMIRPSDSETRLNQMFKDRVTITVDKSTSTAYMELSSLRSEDTAVYYCAGIHDYGHGAYWGQGTLVTVSSGGGGSGGGGSGGGGSGGGGSGITCPPPMSVEHADIWVKSYSLYSRERYICNSGFKRKAGTSSLTECVLNKATNVAHWTTPSLKCIRDPALVHQRPAPPSTVTTAGVTPQPESLSPSGKEPAASSPSSNNTAATTAAIVPGSQLMPSKSPSTGTTEISSHESSHGTPSQTTAKNWELTASASHQPPGVYPQGHSDTTEPKSSDKTHTCPPCPAPELLGGPSVFLFPPKPKDTLMISRTPEVTCVVVDVSHEDPEVKFNWYVDGVEVHNAKTKPREEQYNSTYRVVSVLTVLHQDWLNGKEYKCKVSNKALPAPIEKTISKAKGQPREPQVYTLPPSREEMTKNQVSLTCRVKGFYPSDIAVEWESNGQPENNYKTTPPVLKSDGSFFLASKLTVDKSRWQQGNVFSCSVMHEALHNHYTQKSLSLSPGK
chain 2: DIQMTQSPSSLSASVGDRVTITCRASENIYSNLAWYQQKPGKSPKLLVYAASHLPDGVPSRFSGSGSGTDYSLTISSLQPEDFATYYCQHFWGTPRTFGCGTKLEIKGGGGSGGGGSGGGGSGGGGSGNWVNVISDLKKIEDLIQSMHIDATLYTESDVHPSCKVTAMKCFLLELQVISLESGDASIHNTVQDLIILANNSLSSNGNVTESGCKECEELEEKNIKEFLQSFVHIVQMFINTS
heavy: QVQLQESGPGLVKPSETLSLTCAVYGDSITSGYWNWIRKPPGKGLEYIGYISYTGSTYQNPSLKSRITMSRDTSKNQYYLKLSSVTAADTAVYYCARSRAWIRTYFDYWGQGTLVTVSSASTKGPSVFPLAPSSKSTSGGTAALGCLVKDYFPEPVTVSWNSGALTSGVHTFPAVLQSSGLYSLSSVVTVPSSSLGTQTYICNVNHKPSNTKVDKRVEPKSCDKTHTCPPCPAPELLGGPSVFLFPPKPKDTLMISRTPEVTCVVVDVSHEDPEVKFNWYVDGVEVHNAKTKPREEQYNSTYRVVSVLTVLHQDWLNGKEYKCKVSNKALPAPIEKTISKAKGQPREPQVYTLPPSREEMTKNQVSLWCLVKGFYPSDIAVEWESNGQPENNYDTTPPVLDSDGSFFLYSDLTVDKSRWQQGNVFSCSVMHEALHNHYTQKSLSLSPGK
light: DIQMTQSPSSLSASVGDRVTITCSVSSSISSSNLHWYQQKPGKAPKPWIYGTSNLASGVPSRFSGSGSGTDYTLTISSLQPEDFATYYCQQWSSYPLTFGQGTKLEIKRTVAAPSVFIFPPSDEQLKSGTASVVCLLNNFYPREAKVQWKVDNALQSGNSQESVTEQDSKDSTYSLSSTLTLSKADYEKHKVYACEVTHQGLSSPVTKSFNRGEC
- EC50: 2.37 nM

B4: R1085: TIGIT_VH_IL15RA (P67C)/TIGIT_VL_IL15 (E90C)/PD-L1-Fab (bispecific antibody)
chain 1: QVQLVQSGAEVKKPGSSVKVSCKASGYSFTSYWMNWVRQAPGQGLEWIGMIRPSDSETRLNQMFKDRVTITVDKSTSTAYMELSSLRSEDTAVYYCAGIHDYGHGAYWGQGTLVTVSSGGGGSGGGGSGGGGSGGGGSGITCPPPMSVEHADIWVKSYSLYSRERYICNSGFKRKAGTSSLTECVLNKATNVAHWTTPSLKCIRDCALVHQRPAPPSTVTTAGVTPQPESLSPSGKEPAASSPSSNNTAATTAAIVPGSQLMPSKSPSTGTTEISSHESSHGTPSQTTAKNWELTASASHQPPGVYPQGHSDTTEPKSSDKTHTCPPCPAPELLGGPSVFLFPPKPKDTLMISRTPEVTCVVVDVSHEDPEVKFNWYVDGVEVHNAKTKPREEQYNSTYRVVSVLTVLHQDWLNGKEYKCKVSNKALPAPIEKTISKAKGQPREPQVYTLPPSREEMTKNQVSLTCRVKGFYPSDIAVEWESNGQPENNYKTTPPVLKSDGSFFLASKLTVDKSRWQQGNVFSCSVMHEALHNHYTQKSLSLSPGK
chain 2: DIQMTQSPSSLSASVGDRVTITCRASENIYSNLAWYQQKPGKSPKLLVYAASHLPDGVPSRFSGSGSGTDYSLTISSLQPEDFATYYCQHFWGTPRTFGQGTKLEIKGGGGSGGGGSGGGGSGGGGSGNWVNVISDLKKIEDLIQSMHIDATLYTESDVHPSCKVTAMKCFLLELQVISLESGDASIHNTVQDLIILANNSLSSNGNVTESGCKECECLEEKNIKEFLQSFVHIVQMFINTS
heavy: QVQLQESGPGLVKPSETLSLTCAVYGDSITSGYWNWIRKPPGKGLEYIGYISYTGSTYQNPSLKSRITMSRDTSKNQYYLKLSSVTAADTAVYYCARSRAWIRTYFDYWGQGTLVTVSSASTKGPSVFPLAPSSKSTSGGTAALGCLVKDYFPEPVTVSWNSGALTSGVHTFPAVLQSSGLYSLSSVVTVPSSSLGTQTYICNVNHKPSNTKVDKRVEPKSCDKTHTCPPCPAPELLGGPSVFLFPPKPKDTLMISRTPEVTCVVVDVSHEDPEVKFNWYVDGVEVHNAKTKPREEQYNSTYRVVSVLTVLHQDWLNGKEYKCKVSNKALPAPIEKTISKAKGQPREPQVYTLPPSREEMTKNQVSLWCLVKGFYPSDIAVEWESNGQPENNYDTTPPVLDSDGSFFLYSDLTVDKSRWQQGNVFSCSVMHEALHNHYTQKSLSLSPGK
light: DIQMTQSPSSLSASVGDRVTITCSVSSSISSSNLHWYQQKPGKAPKPWIYGTSNLASGVPSRFSGSGSGTDYTLTISSLQPEDFATYYCQQWSSYPLTFGQGTKLEIKRTVAAPSVFIFPPSDEQLKSGTASVVCLLNNFYPREAKVQWKVDNALQSGNSQESVTEQDSKDSTYSLSSTLTLSKADYEKHKVYACEVTHQGLSSPVTKSFNRGEC
- EC50: 3.2 nM
